Common to all, as to assay: purified protein
Format in all cases: biochemical, Dictyostelium discoideum

Substrate in data set [1]: CCn1c(=NN=c2sc3cc(S(=O)(=O)O)ccc3n2CC)sc2cc(S(=O)(=O)O)ccc21
As to conditions: 1 mM H2O2, 50 mM sodium acetate pH 4.0, 150 mM NaCl, 25 °C.

Substrate in data set [2]: COc1ccc(CO)cc1OC
As to conditions: 1 mM H2O2, 50 mM sodium acetate pH 4.0, 150 mM NaCl, 25 °C.

Substrate in data set [3]: Nc1c(S(=O)(=O)O)cc(Nc2ccc(S(=O)(=O)O)c(Nc3nc(Cl)nc(Cl)n3)c2)c2c1C(=O)c1ccccc1C2=O
To be noted: 1 mM H2O2, 50 mM sodium citrate pH 3.0, 150 mM NaCl, 25 °C.

B1: Dictyostelium DyPA (Dictyostelium discoideum) (protein)
chain: MAQSTVLPMHCLYGIFLEGNLKIQKNDQEGLKKFKDNIKKFTLELDEIDKISPQSRIGGAICFSSDIWDTVTKKISKPKELKSVNTLSSYMPGTSQRDILIHIISDRMDTCFKLAQDTMRNFGEDQLDIKQEIHGFRRVEERDLTDFIDGTENPDGDELRTQYGLVAAGQPNEFGSYVFTQRYVHNLKKWYPEPLSVQQDTVGRTKKDSIEIPRDKRPITSHVSRTDLSENGKDLKIVRQSLPYGQITGEKGLMFIAYACSLHNIEKQLQSMFGQLDGKHDLLLKYTTPVTGSFYFAPSKKELLEL
notes: recombinant from E. coli Rosetta(DE3)pLysS, heme-reconstituted with hemin; homodimer
Broadly, the Km is the concentration of substrate that gives half-maximal velocity. In general, kcat refers to the maximal rate divided by the concentration of active sites. The term kcat/Km denotes the turnover number divided by the Michaelis constant. As for B1, in the data set “purified protein [1]”, the Km was 4100 ± 400 µM, the kcat was 89.9 ± 4.3 s⁻¹ and the kcat/Km came out at 21900 M⁻¹ s⁻¹. Besides, in “purified protein [2]”, the Km stood at 166 ± 58 µM, the kcat came to 0.000338 ± 3.5e-05 s⁻¹ and the kcat/Km was found to be 2.03 M⁻¹ s⁻¹. Besides, in the data set “purified protein [3]”, the Km was determined as 40 ± 10 µM, the kcat stood at 5.2 ± 0.38 s⁻¹ and the kcat/Km was 130000 M⁻¹ s⁻¹.

The values are drawn from publication PMC8230527, “Structural and Biochemical Characterization of a Dye-Decolorizing Peroxidase from Dictyostelium discoideum” (International Journal of Molecular Sciences, 2021).
